Where two headings read alike, the source gives them in different places.
How the values were obtained:
[1] = molecular target: Drosophila melanogaster semaphorin-1a full-length ectodomain (Sema1a_(ecto)) (Drosophila melanogaster); test: SEC-MALS; Superdex 200 Increase 10/300, 15 mM HEPES pH 7.4, 150 mM NaCl; with SDS-PAGE under reducing and non-reducing conditions; initial concentrations up to 2 mg/ml; monomer to dimer
[2] = molecular target: T1, Drosophila melanogaster PlexA1–4-mVenus (Drosophila melanogaster, UniProt Q9V491 28-730); test: MST; plexin-mVenus kept constant, unlabelled semaphorin titrated (1:1 dilution series); 25 °C; 15 mM HEPES pH 7.4, 150 mM NaCl, 2 mM CaCl2, 0.005% Tween-20; 1 h incubation at room temperature; apparent Kd
T1 construct: Plexin A, Drosophila melanogaster, domains 1-4 of the ectodomain, residues 28Q-730T; source: HEK293T, transient transfection, purified (HisTrap, SEC); not shown: mVenus, C-terminal, kept
T1 sequence (looked up): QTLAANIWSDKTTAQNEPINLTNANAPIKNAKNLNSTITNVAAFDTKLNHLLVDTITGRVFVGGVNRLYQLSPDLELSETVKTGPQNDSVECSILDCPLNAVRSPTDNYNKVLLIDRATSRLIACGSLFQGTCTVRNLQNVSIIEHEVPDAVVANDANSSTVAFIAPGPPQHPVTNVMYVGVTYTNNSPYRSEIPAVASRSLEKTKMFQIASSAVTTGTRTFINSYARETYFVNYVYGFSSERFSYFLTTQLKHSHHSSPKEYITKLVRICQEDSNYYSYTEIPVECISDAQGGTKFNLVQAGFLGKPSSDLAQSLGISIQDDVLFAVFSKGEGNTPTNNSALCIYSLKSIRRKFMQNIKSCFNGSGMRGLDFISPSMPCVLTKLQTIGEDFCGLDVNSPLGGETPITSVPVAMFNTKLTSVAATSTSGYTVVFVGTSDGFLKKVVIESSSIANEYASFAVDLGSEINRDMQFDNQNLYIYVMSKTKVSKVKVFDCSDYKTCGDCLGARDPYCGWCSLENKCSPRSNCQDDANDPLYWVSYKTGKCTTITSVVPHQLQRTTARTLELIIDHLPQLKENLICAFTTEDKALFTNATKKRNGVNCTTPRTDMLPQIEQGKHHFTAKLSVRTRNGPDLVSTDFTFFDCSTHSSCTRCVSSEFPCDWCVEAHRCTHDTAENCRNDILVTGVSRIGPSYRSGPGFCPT

[3] = molecular target: Drosophila melanogaster PlexB1–4-mVenus (Drosophila melanogaster) (UniProt Q9V4A7); test: as above
Sequence of Drosophila melanogaster PlexB1–4-mVenus (Drosophila melanogaster) (Q9V4A7 35-730): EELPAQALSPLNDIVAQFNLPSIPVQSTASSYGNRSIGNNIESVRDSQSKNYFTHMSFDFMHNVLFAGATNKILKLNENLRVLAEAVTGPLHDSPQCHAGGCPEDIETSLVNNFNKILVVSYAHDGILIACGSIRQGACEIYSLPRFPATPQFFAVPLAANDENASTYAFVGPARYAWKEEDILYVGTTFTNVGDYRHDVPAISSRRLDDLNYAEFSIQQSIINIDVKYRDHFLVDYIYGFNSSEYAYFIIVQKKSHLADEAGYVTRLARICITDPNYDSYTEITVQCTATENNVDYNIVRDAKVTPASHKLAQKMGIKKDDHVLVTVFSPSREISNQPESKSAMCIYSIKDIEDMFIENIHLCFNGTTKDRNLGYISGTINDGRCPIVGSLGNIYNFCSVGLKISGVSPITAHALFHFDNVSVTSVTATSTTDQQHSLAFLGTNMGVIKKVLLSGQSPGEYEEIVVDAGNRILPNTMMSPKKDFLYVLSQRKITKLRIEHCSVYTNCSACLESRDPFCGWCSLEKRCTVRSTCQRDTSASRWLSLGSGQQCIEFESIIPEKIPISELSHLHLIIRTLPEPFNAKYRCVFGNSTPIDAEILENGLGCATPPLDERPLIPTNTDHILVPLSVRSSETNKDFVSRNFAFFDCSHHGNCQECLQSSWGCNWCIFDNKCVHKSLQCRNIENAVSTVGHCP

[4] = molecular target: Drosophila melanogaster full-length secreted semaphorin-2b (Sema2b_(full)) (Drosophila melanogaster); test: SEC-MALS; Superdex 200 Increase 10/300, 15 mM HEPES pH 7.4, 150 mM NaCl; with SDS-PAGE under reducing and non-reducing conditions; initial concentrations up to 2 mg/ml; monomer to dimer
[5] = molecular target: Sema2b_(full) with the dimerization cysteine mutated to serine (Drosophila melanogaster); test: as above
[6] = molecular target: the molecule itself; test: as above
[7] = molecular target: Drosophila melanogaster full-length secreted semaphorin-2b (Sema2b_(full)) (Drosophila melanogaster); test: SEC-MALS; co-expressed heterodimer purified by HisTrap, StrepTactin and SEC; Superdex 200 Increase 10/300, 15 mM HEPES pH 7.4, 150 mM NaCl; with SDS-PAGE under reducing and non-reducing conditions

Drosophila melanogaster semaphorin-1a full-length ectodomain (Sema1a_(ecto)) (domain or fragment)
stoichiometry N [1]: 2

Fc-tagged dimerized Sema1a_(ecto) (Sema1a_(ecto)-Fc) (from UniProt Q24322 21-602) (Fc fusion)
Kd [2]: 141 nM

Drosophila melanogaster full-length secreted semaphorin-2b (Sema2b_(full)) (ligand)
Kd [3]: 3 nM
stoichiometry N [4]: 2

Sema2b_(full) with the dimerization cysteine mutated to serine (ligand)
stoichiometry N [5]: 2

Sema2a/2b heterodimer (Sema2a_(full)-TwinStrep with Sema2b_(full)-His6, disulfide-linked) (from UniProt Q24323 26-724) (complex)
Kd [3]: 13 nM

B1: Drosophila melanogaster full-length secreted semaphorin-2a (Sema2a_(full)) (ligand, UniProt Q24323 26-724, looked up)
chain: DYENTWNFYYERPCCTGNDQGNNNYGKHGADHVREFNCGKLYYRTFHMNEDRDTLYVGAMDRVFRVNLQNISSSNCNRDVINLEPTRDDVVSCVSKGKSQIFDCKNHVRVIQSMDQGDRLYVCGTNAHNPKDYVIYANLTHLPRSEYVIGVGLGIAKCPYDPLDNSTAIYVENGNPGGLPGLYSGTNAEFTKADTVIFRTDLYNTSAKRLEYKFKRTLKYDSKWLDKPNFVGSFDIGEYVYFFFRETAVEYINCGKAVYSRIARVCKKDVGGKNLLAHNWATYLKARLNCSISGEFPFYFNEIQSVYQLPSDKSRFFATFTTSTNGLIGSAVCSFHINEIQAAFNGKFKEQSSSNSAWLPVLNSRVPEPRPGTCVNDTSNLPDTVLNFIRSHPLMDKAVNHEHNNPVYYKRDLVFTKLVVDKIRIDILNQEYIVYYVGTNLGRIYKIVQYYRNGESLSKLLDIFEVAPNEAIQVMEISQTRKSLYIGTDHRIKQIDLAMCNRRYDNCFRCVRDPYCGWDKEANTCRPYELDLLQDVANETSDICDSSVLKKKIVVTYGQSVHLGCFVKIPEVLKNEQVTWYHHSKDKGRYEIRYSPTKYIETTERGLVVVSVNEADGGRYDCHLGGSLLCSYNITVDAHRCTPPNKSNDYQKIYSDWCHEFEKYKTAMKSWEKKQAQCSTRQNFSSNQHPNEIFRKPNV
notes: Semaphorin-2a, Drosophila melanogaster, residues 26D-724V; Disulfide-linked dimer in solution; source: HEK293T (37 °C), transient transfection, purified (HisTrap, SEC)
stoichiometry N [6]: 2
stoichiometry N [7]: 1

B2: Sema2a_(full) with the dimerization cysteine (Cys279) mutated to serine (ligand, Drosophila melanogaster, UniProt Q24323 26-724, looked up)
chain: DYENTWNFYYERPCCTGNDQGNNNYGKHGADHVREFNCGKLYYRTFHMNEDRDTLYVGAMDRVFRVNLQNISSSNCNRDVINLEPTRDDVVSCVSKGKSQIFDCKNHVRVIQSMDQGDRLYVCGTNAHNPKDYVIYANLTHLPRSEYVIGVGLGIAKCPYDPLDNSTAIYVENGNPGGLPGLYSGTNAEFTKADTVIFRTDLYNTSAKRLEYKFKRTLKYDSKWLDKPNFVGSFDIGEYVYFFFRETAVEYINSGKAVYSRIARVCKKDVGGKNLLAHNWATYLKARLNCSISGEFPFYFNEIQSVYQLPSDKSRFFATFTTSTNGLIGSAVCSFHINEIQAAFNGKFKEQSSSNSAWLPVLNSRVPEPRPGTCVNDTSNLPDTVLNFIRSHPLMDKAVNHEHNNPVYYKRDLVFTKLVVDKIRIDILNQEYIVYYVGTNLGRIYKIVQYYRNGESLSKLLDIFEVAPNEAIQVMEISQTRKSLYIGTDHRIKQIDLAMCNRRYDNCFRCVRDPYCGWDKEANTCRPYELDLLQDVANETSDICDSSVLKKKIVVTYGQSVHLGCFVKIPEVLKNEQVTWYHHSKDKGRYEIRYSPTKYIETTERGLVVVSVNEADGGRYDCHLGGSLLCSYNITVDAHRCTPPNKSNDYQKIYSDWCHEFEKYKTAMKSWEKKQAQCSTRQNFSSNQHPNEIFRKPNV
notes: Semaphorin-2a, Drosophila melanogaster, residues 26D-724V, Cys279 to serine; also called Sema2a_(full) Cys to Ser mutant; source: HEK293T, transient transfection, purified (HisTrap, SEC)
stoichiometry N [6]: 2

B3: Sema1b_(ecto) with phenylalanine 254 mutated to cysteine (domain or fragment, Drosophila melanogaster, UniProt Q7KK54 37-659, looked up)
chain: DVKPDLQTKQDKVLAHFIGNSTDYFKILDHNDEFVLVGAKDVIYNVSLNGLKEIARLEWHSTDADRELCALKGKHEWDCHNYLRVYALRPNGEVLLCGTNSYKPRCRHYTPVEVSSEEAGSAGHAHAMRYEVSRDVEAQGLCPYSPAHNSTYAFADGHLYSATVADFSGGDPLIYRENLRTEQYDLKQLNQPDFVGAIERNGYVLFFFRELSMEVMNCGKAVYSRVARVCKNDRGGPYSHGKSWTSFLKARLNCSVPGEFPFYFDEIQAISPIVESGSKSLIYAVFTTSVNAIPGSAVCAFNVDDILAAFDGEFKSQKDSQSHWLPVEREQVPKPRPGQCVEDSRTLTSIAVNFIKNHPLMEEAVPAVHGRPLLTKVNLHHRLTAIAVHPQVKSLSGAYYDVIYSGTDDGKVTKFINILSTHPNSTVDRLKTVVISEMQVLPLGTPIRELVISTSKNSLVVVSDGSLVSVPLHHCSHIVDCLGCLSLQDPICAWDLQTHECKNLATSQHKFGTKTYLQSLNSTKKAAALLCPHIPRDAPGAETVSFVTMAPPPTEEQKLLYSNVGSSQGNQPSLEQQPTGGDDFGLNKITLTSMDPDDIMPNLNDPQKSTASVDEIKYASTPS
notes: Semaphorin-1b, Drosophila melanogaster, ectodomain, residues 37D-659S, F254C; also called Sema1b_(ecto) F254C; source: HEK293T, transient transfection, purified (HisTrap, SEC)
stoichiometry N [6]: 2

B4: Drosophila melanogaster semaphorin-1b full-length ectodomain (Sema1b_(ecto)) (domain or fragment, UniProt Q7KK54 37-659, looked up)
chain: DVKPDLQTKQDKVLAHFIGNSTDYFKILDHNDEFVLVGAKDVIYNVSLNGLKEIARLEWHSTDADRELCALKGKHEWDCHNYLRVYALRPNGEVLLCGTNSYKPRCRHYTPVEVSSEEAGSAGHAHAMRYEVSRDVEAQGLCPYSPAHNSTYAFADGHLYSATVADFSGGDPLIYRENLRTEQYDLKQLNQPDFVGAIERNGYVLFFFRELSMEVMNFGKAVYSRVARVCKNDRGGPYSHGKSWTSFLKARLNCSVPGEFPFYFDEIQAISPIVESGSKSLIYAVFTTSVNAIPGSAVCAFNVDDILAAFDGEFKSQKDSQSHWLPVEREQVPKPRPGQCVEDSRTLTSIAVNFIKNHPLMEEAVPAVHGRPLLTKVNLHHRLTAIAVHPQVKSLSGAYYDVIYSGTDDGKVTKFINILSTHPNSTVDRLKTVVISEMQVLPLGTPIRELVISTSKNSLVVVSDGSLVSVPLHHCSHIVDCLGCLSLQDPICAWDLQTHECKNLATSQHKFGTKTYLQSLNSTKKAAALLCPHIPRDAPGAETVSFVTMAPPPTEEQKLLYSNVGSSQGNQPSLEQQPTGGDDFGLNKITLTSMDPDDIMPNLNDPQKSTASVDEIKYASTPS
notes: Semaphorin-1b, Drosophila melanogaster, ectodomain, residues 37D-659S; Monomer in solution; source: HEK293T (30 °C), transient transfection, purified (HisTrap, SEC)
Kd ([2]; both partners purified): 586 ± 134 nM

From paper PMC6695400, “Diversity of oligomerization in Drosophila semaphorins suggests a mechanism of functional fine-tuning” (Nature Communications, 2019)
